The source of these data is publication PMC5913134, “The IL-33-PIN1-IRAK-M axis is critical for type 2 immunity in IL-33-induced allergic airway inflammation” (Nature Communications, 2018).

Series [1] relates to IRAK1. Put plainly: In vitro phosphorylation by IRAK1 immunoprecipitated from IL-33 stimulated cells. It is filed as biochemical. Conditions: IRAK1 IPed from IL-33 stimulated cells, γP32 ATP, autoradiography. An excerpt:
Suppl em enta ry Figur e 2.
Supplementary Figure 2. IRAK-M DD structure modeling analysis and phosphorylation by IRAK1.
(a) Overlaid 1H-15N HSQC spectra of the 15N-labeled Pin1 WW domain showing changes in chemical environment resulting from titration with the phosphorylated IRAK-M peptide. Overlaid spectra of apo (red) and increasing amounts of ligand (rainbow of colors, with purple as highest ligand concentration) show progressive peak shifts. (b) Interaction between IRAK-M DD and IRAK1 DD from Figure 3f. Cyan: IRAK1 DDs, Yellow: IRAK-M DD. (c) The aromatic residues interaction between IRAK-M DD and IRAK4 DD from Figure 3f. Green: IRAK4 DDs, Yellow: IRAK-M DD. (d) IRAK-M or its mutants as described, were expressed in 293 cells or 293 IRAK1null cells expressing the ST2 receptor and treated with IL-33. The phosphorylation is shown by the slow migrating bands. (e) WT or Pin KO cells were treated with IL-33 and IRAK1 phosphorylation was monitored at different time after stimulation. (f) DC2.4 cells were either treated or not with IL-33. IRAK1 was IP’d and incubated with GST-IRAK-M aa1-120 in the presence of ΓP32ATP.
The beads were washed and GST-IRAK-M was eluted and run for autoradiography. […]

Series [2] is classed as physicochemical. From the text:
The IRAK-M[1–119] gene was encoded into the pMAL-c2X vector with N-terminal fusion partner MBP, separated by a Factor XA cleavage site. The R56D and Y61D mutations were achieved using this vector, a single primer (forward primer, with mutations underlined: 5’ […] 3’) and the BIO RAD-iProof High-Fidelity DNA Polymerase to generate expression plasmid pMAL-c2X encoding the MBP- IRAK-M[1-119:R56D,Y61D] fusion protein, with a Factor XA cut site between MBP and IRAK-M[1-119:R56D,Y61D]. To produce uniformly ^15N-labeled MBP-IRAK-M[1-119:R56D,Y61D] in E. coli, transformed cells were grown in M9 minimal media with ^15NH4Cl as the sole nitrogen source, and were induced at OD600 by adding 0.4 mM final concentration of IPTG at 25 °C for 20~22 h. Cells were harvested by centrifugation at 3500 g, the cell pellet was dissolved in IRAK-M wash buffer (20 mM Tris, 200 mM NaCl, 1 mM EDTA, and 0.2 mM TCEP, pH 7.4), and sonicated on ice. Cell debris was removed by centrifugation, the supernatant was incubated with 5 mL of Amylose Resin (BioLabs) pre-equilibrated with IRAK-M wash buffer. The column was washed with 4 bed volumes of IRAK-M wash buffer, and the fusion protein was eluted with 2 bed volumes of elution buffer (10 mM of Maltose added to IRAK-M wash buffer). […] IRAK-M[1-119:R56D,Y61D] concentration was measured by UV absorption at 280 nm (extinction coefficient = 25105 cm^-1 M^-1). […]

B1: GST-IRAK-M: purified GST-IRAK-M containing amino acids 1-120 (protein, UniProt Q8K4B2 1-120, looked up, fragment)
chain: MAGRCGARGALSPQLLLFDLPPALLGELCGILDSCDGPLGWRGLAERLSNSWLDVRHIEKYVNQGKSGTRELLWSWAQKNKTIGDLLEVLQDMGHQRAIHLIINYGVSWTPSVQTHHELP
modifications: GST tag
On to B1, for which the “phosphorylation by IRAK1” value in series [1] is listed as “phosphorylated WT IRAK-M”.

B2: IRAK-M[1–119]: recombinant IRAK-M residues 1–119 including the DD (protein, UniProt Q8K4B2 1-119, looked up, fragment)
chain: MAGRCGARGALSPQLLLFDLPPALLGELCGILDSCDGPLGWRGLAERLSNSWLDVRHIEKYVNQGKSGTRELLWSWAQKNKTIGDLLEVLQDMGHQRAIHLIINYGVSWTPSVQTHHEL
Consider B2, for which the “solubility of cleaved protein” value in series [2] is recorded as “precipitated under all conditions explored”.
